The values below are quoted from earlier work in article PMC8019513.

Like-named read-outs stand apart in the source and are kept apart here.

Series [1] deals with IL-8 (Homo sapiens) (UniProt P10145).
For series [2] the target is unchanged. This is another data set of the same source.

Chain of IL-8 (Homo sapiens) (P10145 28-99): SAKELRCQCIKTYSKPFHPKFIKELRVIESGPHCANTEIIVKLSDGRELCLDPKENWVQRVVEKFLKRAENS
Chain of CXCR2 (P25025 whole entry): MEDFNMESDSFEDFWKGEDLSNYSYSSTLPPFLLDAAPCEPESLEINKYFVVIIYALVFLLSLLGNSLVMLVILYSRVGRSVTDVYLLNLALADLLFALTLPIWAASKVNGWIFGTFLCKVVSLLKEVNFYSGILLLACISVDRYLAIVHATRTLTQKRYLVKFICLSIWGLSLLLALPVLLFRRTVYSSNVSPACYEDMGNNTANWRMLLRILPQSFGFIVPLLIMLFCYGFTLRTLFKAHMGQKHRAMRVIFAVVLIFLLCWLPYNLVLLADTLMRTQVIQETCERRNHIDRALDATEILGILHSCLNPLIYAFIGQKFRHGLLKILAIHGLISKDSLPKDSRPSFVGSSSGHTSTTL
Chain of CXCR1 (P25024 whole entry): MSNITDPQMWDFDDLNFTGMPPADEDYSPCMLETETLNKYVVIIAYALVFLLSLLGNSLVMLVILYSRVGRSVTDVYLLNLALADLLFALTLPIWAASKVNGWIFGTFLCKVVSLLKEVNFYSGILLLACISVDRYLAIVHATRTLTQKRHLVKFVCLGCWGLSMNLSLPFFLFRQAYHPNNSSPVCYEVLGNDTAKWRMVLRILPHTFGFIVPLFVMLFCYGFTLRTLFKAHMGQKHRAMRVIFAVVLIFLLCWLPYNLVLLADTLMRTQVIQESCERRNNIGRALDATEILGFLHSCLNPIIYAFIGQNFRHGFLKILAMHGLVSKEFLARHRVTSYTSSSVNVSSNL

The term Kd denotes the concentration at which binding is half-saturated. Consider CXCR1 (from UniProt P25024), for which the Kd with IL-8 (Homo sapiens) [1] was 4 nM.

CXCR2 (from UniProt P25025): in the series with IL-8 (Homo sapiens) [2], the Kd was 4 nM.
